# Biological target: CFP/B-Lc (BoNT/B protease fused to CFP) (Clostridium botulinum, BoNT type B; …, UniProt P10844)
# Test: pull-down
binder,measurement,value
YFP/B10 (VHH BLc-B10 fused to an amino terminal streptavidin binding peptide and YFP) (VHH) VHH: QLQLVESGGGMVQPGGSLRLSCAASGFTFSTYDMSWVRQAPGKGPEWVSIINAGGGSTYYAASVKGRFAISRDNAKNTLYLQMNNLKPEDTALYYCARVASYYCRGYVCSPPEFDYWGQGTQVTVSS,binding result,binds
